This note sets out measurements from PMC8847413 (Nature Communications, 2022).

This assay concerns the target T1, recombinant RBD protein derived from the SARS-CoV-2 WT strain (SARS-CoV-2 wild type (Wuhan-Hu-1), UniProt P0DTC2).
T1 construct: also called WT-RBD; WT RBD
The assay can be described thus: ELISA. Conditions: both partners purified. Background: An ELISA detects its analyte on a solid surface through an enzyme-linked reagent.

B1: MAb 3C1 (antibody, V domains shown)
VH: EVQLQESGPSLVKPSQTLSLTCSVTGDSITNGYWNWIRKFPGNKLEYMGYISYSGSTYYSPSLKSRISITRDTSKNQHYLQLNSVTSEDTATYYCASDYHGSKYYFDYWGQGTTLTVSS
VL: DIVMTQSHKFMSTSVGHRVSITCKASQDVGNDVAWYQQKPGQSPKLLIYWASTRHTGVPDRFTGSGSGTDFTLTISNVQSEDLADYFCQQYNRYPYTFGGGTKLEIK
notes: copies: 2 + 2
Regarding B1, the binding result is reported as “binds”.

B2: MAb 8D3 (IgG) (antibody, V domains shown)
VH: EVQLQQSGPELVKPGASVKISCKTSGYTFTEYTMYWVKQSHGKSLEWIGGINPNIGDTSYNQNFKGKATLTVDRSSSTAYMELRSLTSEDSAVYYCARDGYPYYYALDHWGQGTSVTVSS
VL: DIVMTQSQKFMSTSVGDRVSVTCKASQNVGTNVAWYQQKPGQSPKALIYSTSYRYSGVPDRFTGSGSGTDFTLTISNVQSEDLAEYFCQQYNSYPYTFGGGTKLEIK
notes: copies: 2 + 2
With B2, the binding result is recorded as “binds”.

B3: MAb 2H2 (antibody, V domains shown)
VH: QVQLKQSGPSLVQPSQSLSITCTVSGFSLTSYGVHWVRQSPGKGLEWLGVMWRGGNTDYNAAFMSRLSITKDNSKSQVFFKMNSLQTDDTAIYYCAKNGGAHAMDFWGQGTSVTVSS
VL: NIVLTQSPASLAVSLGQRATISCRASESVDSYGNSFLHWYQQKPGQPPKLLIYLASNLESGVPARFSGSGSRTDFTLTIDPVEADDAATYYCQQNNEDPFTFGSGTKLEIK
notes: copies: 2 + 2
As to B3, the binding result is “binds”.
